{"source": "paper PMC7854593", "about": "“Molecular mechanism for vitamin C-derived C^5-glyceryl-methylcytosine DNA modification catalyzed by algal TET homologue CMD1” (Nature Communications, 2021)", "molecules": {"B1": {"name": "14-nt 5mC-DNA (BLI) (dsDNA)", "DNA 1": "CCCGCGCGGGATGT", "DNA 2": "CCCGCGCGGGATGT", "modifications": "5mC at position 3 of both strands"}, "B2": {"name": "dsDNA8 (10-30 bp) (dsDNA)", "DNA 1": "ACTTACTGCCAATATAGTAT", "DNA 2": "ATACTATATTGGCAGTAAGT"}, "B3": {"name": "dsDNA9 (10-30 bp) (dsDNA)", "DNA 1": "AACTTACATAAATGCCAATATAGTATGCGT", "DNA 2": "ACGCATACTATATTGGCATTTATGTAAGTT"}, "B4": {"name": "Y-DNA (structured_DNA)", "DNA 1": "GCTTTAACTTACATAAATGCCAATATAGTATGCGTATTGC", "DNA 2": "TACCGCATACGCCTATATTGGCATTTATGTAAGTTAAAGC"}, "B5": {"name": "bubble DNA (structured_DNA)", "DNA 1": "GCTTTAACTTACATACCCCCCCCCCTAGTATGCGTATTGC", "DNA 2": "GCAATACGCATACTATTTTTTTTTTTATGTAAGTTAAAGC"}, "B6": {"name": "5'-flap DNA (structured_DNA)", "DNA 1": "B4 DNA 1", "DNA 2": "B4 DNA 2", "DNA 3": "GCAATACGCATA"}, "B7": {"name": "3'-flap DNA (structured_DNA)", "DNA 1": "B4 DNA 1", "DNA 2": "B4 DNA 2", "DNA 3": "GCGTATGCGGTA"}, "B8": {"name": "14-nt DNA (crystal), unmodified (dsDNA)", "DNA 1": "CCCGCGCGGGATGT", "DNA 2": "CCCGCGCGGGATGT"}, "B9": {"name": "dsDNA1 (40 bp, AT-rich) (dsDNA)", "DNA 1": "B4 DNA 1", "DNA 2": "B5 DNA 2 with T17A, T20G, T21G, T22C, T23A"}, "B10": {"name": "dsDNA2 (40 bp, AT-rich) (dsDNA)", "DNA 1": "ATACTTACGAATCTGAACTTAGATCCTAATATACATTCTA", "DNA 2": "TAGAATGTATATTAGGATCTAAGTTCAGATTCGTAAGTAT"}, "B11": {"name": "dsDNA3 (40 bp, GC-rich) (dsDNA)", "DNA 1": "GCTGGCCCTGACATGGGTGCCAGCGTAGTGCGCGTAGCGC", "DNA 2": "GCGCTACGCGCACTACGCTGGCACCCATGTCAGGGCCAGC"}, "B12": {"name": "dsDNA4 (40 bp, GC-rich) (dsDNA)", "DNA 1": "GACATCGGCGCGGGGTTCAGCCCCGGCCGTATTGGGGCTC", "DNA 2": "GAGCCCCAATACGGCCGGGGCTGAACCCCGCGCCGATGTC"}, "B13": {"name": "dsDNA5 (40 bp, 5mC) (dsDNA)", "DNA 1": "B4 DNA 1", "DNA 2": "B5 DNA 2 with T17A, T20G, T21G, T22C, T23A", "modifications": "one or two 5mC"}, "B14": {"name": "dsDNA6 (40 bp, 5mC) (dsDNA)", "DNA 1": "B4 DNA 1", "DNA 2": "B5 DNA 2 with T17A, T20G, T21G, T22C, T23A", "modifications": "one or two 5mC"}}, "key": {"MBP-fused CMD1": {"target": "T1, MBP-fused CMD1 (Chlamydomonas reinhardtii, UniProt A0A2K3D5Z7)", "T1 construct": "full-length CMD1 with N-terminal MBP via alpha-helical linker and C-terminal His6, tags kept; expressed in E. coli; residues 509-532 disordered in apo crystal, C-terminal region partly degraded in crystals", "T1 sequence (A0A2K3D5Z7 whole entry, the tested form may be a part)": "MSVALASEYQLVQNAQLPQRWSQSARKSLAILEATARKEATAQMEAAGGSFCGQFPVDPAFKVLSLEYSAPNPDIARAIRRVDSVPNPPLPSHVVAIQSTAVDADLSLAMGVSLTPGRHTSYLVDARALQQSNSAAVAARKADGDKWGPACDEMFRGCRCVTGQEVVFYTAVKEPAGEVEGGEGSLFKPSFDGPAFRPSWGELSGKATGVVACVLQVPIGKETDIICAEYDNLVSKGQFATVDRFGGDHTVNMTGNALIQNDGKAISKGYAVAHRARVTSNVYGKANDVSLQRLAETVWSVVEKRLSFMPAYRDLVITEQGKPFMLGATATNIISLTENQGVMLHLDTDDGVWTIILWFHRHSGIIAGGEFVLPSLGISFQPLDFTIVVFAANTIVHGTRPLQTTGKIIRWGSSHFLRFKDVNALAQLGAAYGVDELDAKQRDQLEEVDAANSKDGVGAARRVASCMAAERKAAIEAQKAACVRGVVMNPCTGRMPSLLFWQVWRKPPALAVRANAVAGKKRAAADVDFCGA", "experiment": "X-ray crystal structure, crystals soaked with sodium L-ascorbate", "type": "binding", "conditions": "Fe2+ in active site; pH 5.0-5.6 citrate; 400 mM soak; binary complex 7CY5 (2.20 A) and ternary complex with 5mC-DNA 7CY8 (2.40 A); lactone form, monodentate via C2-hydroxyl"}, "MBP-CMD1 [1]": {"target": "T2, MBP-CMD1 (UniProt A0A2K3D5Z7 1-532)", "T2 sequence (A0A2K3D5Z7 whole entry)": "as the sequence (A0A2K3D5Z7 whole entry, the tested form may be a part) above", "experiment": "BLI; BLI: 20 mM Tris-HCl pH 8.0, 50 mM NaCl, 0.1% Tween-20, 0.5% BSA, 25 C; biotin-DNA on streptavidin sensors, 1:1 fit", "conditions": "protein: recombinant; tags: N-terminal MBP via alpha-helical linker; C-terminal His6; label: 5'-biotin; 10 bp palindromic duplex, 3' overhang 4 nt on both strands"}, "CMD1 [2]": {"target": "T3, CMD1 (UniProt A0A2K3D5Z7 1-532)", "T3 sequence (A0A2K3D5Z7 whole entry)": "as the sequence (A0A2K3D5Z7 whole entry, the tested form may be a part) above", "experiment": "BLI; BLI: 20 mM Tris-HCl pH 8.0, 50 mM NaCl, 0.1% Tween-20, 0.5% BSA, 25 C; biotin-DNA on streptavidin sensors, 1:1 fit", "conditions": "protein: recombinant, tags: His6-SUMO, cleaved with ULP1, label: 5'-biotin"}, "CMD1 [3]": {"target": "T3, CMD1", "experiment": "BLI; range over dsDNA7-9; BLI: 20 mM Tris-HCl pH 8.0, 50 mM NaCl, 0.1% Tween-20, 0.5% BSA, 25 C; biotin-DNA on streptavidin sensors, 1:1 fit", "conditions": "protein: recombinant; tags: His6-SUMO, cleaved with ULP1; label: 5'-biotin"}, "CMD1 [4]": {"target": "T3, CMD1", "experiment": "BLI; range over six structured DNAs; BLI: 20 mM Tris-HCl pH 8.0, 50 mM NaCl, 0.1% Tween-20, 0.5% BSA, 25 C; biotin-DNA on streptavidin sensors, 1:1 fit", "conditions": "protein: recombinant, tags: His6-SUMO, cleaved with ULP1, label: 5'-biotin"}, "MBP-CMD1 [5]": {"target": "T2, MBP-CMD1", "experiment": "crystal structure; Fe2+; BLI: 20 mM Tris-HCl pH 8.0, 50 mM NaCl, 0.1% Tween-20, 0.5% BSA, 25 C; biotin-DNA on streptavidin sensors, 1:1 fit", "conditions": "protein: recombinant; tags: N-terminal MBP via alpha-helical linker; C-terminal His6; 10 bp palindromic duplex, 3' overhang 4 nt on both strands"}, "CMD1 [6]": {"target": "T3, CMD1", "experiment": "BLI; range over dsDNA1-4; BLI: 20 mM Tris-HCl pH 8.0, 50 mM NaCl, 0.1% Tween-20, 0.5% BSA, 25 C; biotin-DNA on streptavidin sensors, 1:1 fit", "conditions": "protein: recombinant; tags: His6-SUMO, cleaved with ULP1; label: 5'-biotin"}, "CMD1 [7]": {"target": "T3, CMD1", "experiment": "BLI; range over dsDNA5-6; BLI: 20 mM Tris-HCl pH 8.0, 50 mM NaCl, 0.1% Tween-20, 0.5% BSA, 25 C; biotin-DNA on streptavidin sensors, 1:1 fit", "conditions": "protein: recombinant; tags: His6-SUMO, cleaved with ULP1; label: 5'-biotin"}}, "note": "Where a chain is given by its changes, count along the chain named.", "data": [{"molecule": "O=C1O[C@H]([C@@H](O)CO)C(O)=C1O", "note": "[VC]", "values": [{"measurement": "X-ray crystal structure, crystals soaked with sodium L-ascorbate", "setting": "MBP-fused CMD1", "result": "crystals of CMD1 in complex with VC were obtained by soaking the apo CMD1 crystals"}]}, {"molecule": "B1", "values": [{"measurement": "Kd", "setting": "MBP-CMD1 [1]", "result": "810 ± 30", "unit": "nM"}, {"measurement": "Kd", "setting": "CMD1 [2]; 10 bp palindromic duplex, 3' overhang 4 nt on both strands", "result": "2010 ± 110", "unit": "nM"}]}, {"molecule": "B2", "values": [{"measurement": "Kd", "setting": "CMD1 [3]", "result": "~1930", "unit": "nM"}]}, {"molecule": "B3", "values": [{"measurement": "Kd", "setting": "CMD1 [3]", "result": "~1930", "unit": "nM"}]}, {"molecule": "B4", "values": [{"measurement": "Kd", "setting": "CMD1 [4]; fork", "result": "~1380", "unit": "nM"}]}, {"molecule": "B5", "values": [{"measurement": "Kd", "setting": "CMD1 [4]; bubble", "result": "~1380", "unit": "nM"}]}, {"molecule": "B6", "values": [{"measurement": "Kd", "setting": "CMD1 [4]; 5' flap", "result": "~1380", "unit": "nM"}]}, {"molecule": "B7", "values": [{"measurement": "Kd", "setting": "CMD1 [4]; 3' flap", "result": "~1380", "unit": "nM"}]}, {"molecule": "TTTTTTCTTTTTTCTTTTTTCTTTTTTCTTTTTTCTTTTT (ssDNA)", "note": "[ssDNA (40 nt)]", "values": [{"measurement": "Kd", "setting": "CMD1 [2]", "result": 2770, "unit": "nM"}]}, {"molecule": "B8", "values": [{"measurement": "binding result", "setting": "MBP-CMD1 [5]", "result": "binds"}]}, {"molecule": "B9", "values": [{"measurement": "Kd", "setting": "CMD1 [6]", "result": "~2220", "unit": "nM"}]}, {"molecule": "B10", "values": [{"measurement": "Kd", "setting": "CMD1 [6]", "result": "~2220", "unit": "nM"}]}, {"molecule": "B11", "values": [{"measurement": "Kd", "setting": "CMD1 [6]", "result": "~2220", "unit": "nM"}]}, {"molecule": "B12", "values": [{"measurement": "Kd", "setting": "CMD1 [6]", "result": "~2220", "unit": "nM"}]}, {"molecule": "B13", "values": [{"measurement": "Kd", "setting": "CMD1 [7]", "result": "~2400", "unit": "nM"}]}, {"molecule": "B14", "values": [{"measurement": "Kd", "setting": "CMD1 [7]", "result": "~2400", "unit": "nM"}]}]}
